Source: paper PMC4395482 (The Journal of Cell Biology, 2015)

Biological target: the molecule itself
Assay: crystal structure

B1: hSac2 domain of human Sac2 (aa 593–760) (domain or fragment, UniProt Q9Y2H2 593-760, looked up)
chain: RSHQELISQLLQSYMKLLLPDDEKFHGGWALIDCDPSLIDATHRDVDVLLLLSNSAYYVAYYDDEVDKVNQYQRLSLENLEKIEIGPEPTLFGKPKFSCMRLHYRYKEASGYFHTLRAVMRNPEEDGKDTLQCIAEMLQITKQAMGSDLPIIEKKLERKSSKPHEDII
modifications: selenomethionine (selenomethionine protein crystals)
  stoichiometry N: 2
